Results on seven substances are retold here after patent US20040166544A1.

In assay [1] the target is c-Met (endogenous, on human cell lines 184B5, HCT-116, DU-145 and NCI H441) (human) (UniProt P08581). In words: cell-based or functional assay.
Assay [2] deals with c-Met/Fc Chimera (R&D Systems, catalog # 358-MT-100) (human) (UniProt P08581). In words: SPR (BIAcore), c-Met-Fc captured on protein A CM5 chip, Fab as analyte, 1:1 Langmuir model.
Assay [3] shares this target. Put plainly: competition ELISA: displacement of biotinylated HGF from plate-coated c-Met/Fc chimera, Fab, n = 2.
In assay [4] the target is biotinylated c-Met-Fc (R&D Systems, #358-MT-100/CF, 5.1 biotin per c-Met molecule) (human) (UniProt P08581). In words: SPR (BIAcore), biotinylated c-Met-Fc captured on streptavidin chip, IgG as analyte, bivalent model.
For assay [5], the target named is c-Met/Fc Chimera (R&D Systems, catalog # 358-MT-100) (human) (UniProt P08581). Put plainly: competition ELISA: displacement of biotinylated HGF from plate-coated c-Met/Fc chimera, IgG, n = 2.

c-Met (endogenous, on human cell lines 184B5, HCT-116, DU-145 and NCI H441) (human), sequence (P08581 25-1390): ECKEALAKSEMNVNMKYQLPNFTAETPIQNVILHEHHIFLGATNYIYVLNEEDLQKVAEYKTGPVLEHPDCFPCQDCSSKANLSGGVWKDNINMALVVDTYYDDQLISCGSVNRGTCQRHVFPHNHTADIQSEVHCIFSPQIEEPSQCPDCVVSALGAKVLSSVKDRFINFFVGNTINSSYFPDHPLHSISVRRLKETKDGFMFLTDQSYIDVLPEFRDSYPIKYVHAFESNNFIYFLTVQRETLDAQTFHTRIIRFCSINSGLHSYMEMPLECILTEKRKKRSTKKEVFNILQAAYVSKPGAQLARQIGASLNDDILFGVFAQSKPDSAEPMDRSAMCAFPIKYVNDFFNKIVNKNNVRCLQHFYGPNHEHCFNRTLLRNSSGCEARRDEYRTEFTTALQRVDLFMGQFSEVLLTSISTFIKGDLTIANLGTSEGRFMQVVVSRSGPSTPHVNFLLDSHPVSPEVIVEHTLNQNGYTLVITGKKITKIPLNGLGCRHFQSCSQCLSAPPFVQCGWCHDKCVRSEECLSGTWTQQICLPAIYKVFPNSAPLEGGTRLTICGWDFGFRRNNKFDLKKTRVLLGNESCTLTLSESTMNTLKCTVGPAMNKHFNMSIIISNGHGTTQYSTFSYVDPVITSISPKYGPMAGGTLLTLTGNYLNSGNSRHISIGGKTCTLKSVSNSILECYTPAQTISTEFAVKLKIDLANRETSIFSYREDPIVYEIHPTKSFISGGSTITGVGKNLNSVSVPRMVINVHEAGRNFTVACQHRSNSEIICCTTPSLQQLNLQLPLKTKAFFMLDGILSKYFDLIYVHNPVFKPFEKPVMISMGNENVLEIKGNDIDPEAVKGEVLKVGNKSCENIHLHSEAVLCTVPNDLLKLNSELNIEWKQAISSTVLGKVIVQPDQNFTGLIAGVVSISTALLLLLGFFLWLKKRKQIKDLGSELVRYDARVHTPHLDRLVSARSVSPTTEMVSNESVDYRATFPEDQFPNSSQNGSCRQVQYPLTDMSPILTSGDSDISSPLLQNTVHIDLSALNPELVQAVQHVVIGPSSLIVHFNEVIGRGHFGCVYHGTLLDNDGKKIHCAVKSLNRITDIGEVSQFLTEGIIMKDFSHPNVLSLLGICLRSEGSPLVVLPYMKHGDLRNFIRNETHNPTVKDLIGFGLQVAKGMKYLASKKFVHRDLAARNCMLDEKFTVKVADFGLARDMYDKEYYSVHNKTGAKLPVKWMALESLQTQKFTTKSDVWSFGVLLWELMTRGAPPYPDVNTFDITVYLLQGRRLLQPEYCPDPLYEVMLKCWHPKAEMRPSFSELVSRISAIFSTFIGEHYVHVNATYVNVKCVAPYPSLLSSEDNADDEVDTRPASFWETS
c-Met/Fc Chimera (R&D Systems, catalog # 358-MT-100) (human), sequence (P08581 25-932, stated change not applied): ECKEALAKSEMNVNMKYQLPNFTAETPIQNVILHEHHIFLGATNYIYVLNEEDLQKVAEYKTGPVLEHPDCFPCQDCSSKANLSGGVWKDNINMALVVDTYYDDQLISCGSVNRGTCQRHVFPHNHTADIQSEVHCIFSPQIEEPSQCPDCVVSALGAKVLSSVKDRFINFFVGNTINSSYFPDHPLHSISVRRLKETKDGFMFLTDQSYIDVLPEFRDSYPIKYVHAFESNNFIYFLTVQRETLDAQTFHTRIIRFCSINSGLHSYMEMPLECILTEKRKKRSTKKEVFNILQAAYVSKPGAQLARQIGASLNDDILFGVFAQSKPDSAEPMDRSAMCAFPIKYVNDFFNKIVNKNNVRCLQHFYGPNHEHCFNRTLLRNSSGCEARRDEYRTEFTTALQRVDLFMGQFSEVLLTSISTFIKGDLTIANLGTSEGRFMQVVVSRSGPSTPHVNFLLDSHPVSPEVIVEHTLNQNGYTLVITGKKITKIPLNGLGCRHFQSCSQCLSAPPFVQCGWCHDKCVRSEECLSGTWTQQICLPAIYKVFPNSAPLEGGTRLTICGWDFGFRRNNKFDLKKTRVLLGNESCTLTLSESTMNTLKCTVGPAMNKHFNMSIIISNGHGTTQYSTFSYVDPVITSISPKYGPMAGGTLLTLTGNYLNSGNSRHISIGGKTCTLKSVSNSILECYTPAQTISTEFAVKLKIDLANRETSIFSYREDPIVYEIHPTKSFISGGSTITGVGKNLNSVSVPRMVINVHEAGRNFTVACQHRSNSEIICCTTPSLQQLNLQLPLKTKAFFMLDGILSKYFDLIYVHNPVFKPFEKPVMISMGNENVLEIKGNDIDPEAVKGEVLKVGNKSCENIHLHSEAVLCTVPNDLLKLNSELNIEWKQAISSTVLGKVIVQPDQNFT
biotinylated c-Met-Fc (R&D Systems, #358-MT-100/CF, 5.1 biotin per c-Met molecule) (human), sequence (P08581 25-932): as the sequence (P08581 25-932, stated change not applied) above

Regarding “HB94 (#HB-94, ATCC Hybridoma), IgG columns of Tables 9 and 10 (antibody)”, in assay [1], the scatter assay on DU-145 cells, mean object area, agonist (alone), 100 nM, IgG column; the smaller the number, the more scattering (mean object area) turned out to be 365 and the scatter assay on DU-145 cells, mean object area, antagonist (w/30 pM HGF), 100 nM, IgG column; the smaller the number, the more scattering (mean object area) is 199.

In assay [1], “HB-94 (#HB-94, ATCC Hybridoma) converted into a Fab fragment, Fab isotype control” registered a scatter assay on DU-145 cells, mean object area, agonist (alone), 100 nM Fab; the smaller the number, the more scattering (mean object area) of 592 and a scatter assay on DU-145 cells, mean object area, antagonist (w/30 pM HGF), 100 nM Fab; the smaller the number, the more scattering (mean object area) of 478.

“c-Met antibody 1A3.3.13 (#HB-11894, ATCC Hybridoma), Fab”: in assay [2], the Kd was found to be 6.3 nM, the koff turned out to be 0.00313 s⁻¹ and the on-rate (kon) was 497000 M⁻¹ s⁻¹. In addition, the IC50 in assay [3] was 6.83 nM. For the same substance, in assay [1], the scatter assay on DU-145 cells, mean object area, agonist (alone), 100 nM Fab; the smaller the number, the more scattering (mean object area) is 597 and the scatter assay on DU-145 cells, mean object area, antagonist (w/30 pM HGF), 100 nM Fab; the smaller the number, the more scattering (mean object area) came to 400.

As to “c-Met antibody 1A3.3.13 (#HB-11894, ATCC Hybridoma), IgG”, in assay [4], the Kd stood at 1.4 nM, the koff stood at 0.000289 s⁻¹ and the kon stood at 210000 M⁻¹ s⁻¹. In assay [1], this substance displayed a scatter assay on DU-145 cells, mean object area, agonist (alone), 100 nM IgG; the smaller the number, the more scattering (mean object area) of 305 and a scatter assay on DU-145 cells, mean object area, antagonist (w/30 pM HGF), 100 nM IgG; the smaller the number, the more scattering (mean object area) of 254. Moreover, the IC50 in assay [5] was determined as 0.5 nM.

In the case of “c-Met antibody 5D5.11.6 (#HB-11895, ATCC Hybridoma), Fab”, in assay [2], the Kd turned out to be 1 nM, the koff was determined as 0.000129 s⁻¹ and the kon came to 126000 M⁻¹ s⁻¹. For the same substance, the IC50 in assay [3] came out at 9.72 nM. In assay [1], this substance came in with a scatter assay on DU-145 cells, mean object area, agonist (alone), 100 nM Fab; the smaller the number, the more scattering (mean object area) of 632 and a scatter assay on DU-145 cells, mean object area, antagonist (w/30 pM HGF), 100 nM Fab; the smaller the number, the more scattering (mean object area) of 592.

For the substance “c-Met antibody 5D5.11.6 (#HB-11895, ATCC Hybridoma), IgG”, in assay [4], the Kd came to 5.9 nM, the koff was 0.000406 s⁻¹ and the kon stood at 68800 M⁻¹ s⁻¹. Besides, in assay [1], the scatter assay on DU-145 cells, mean object area, agonist (alone), 100 nM IgG; the smaller the number, the more scattering (mean object area) amounted to 239 and the scatter assay on DU-145 cells, mean object area, antagonist (w/30 pM HGF), 100 nM IgG; the smaller the number, the more scattering (mean object area) came to 241.

“recombinant human HGF (rhHGF, R&D Systems) (from UniProt P14210 32-728) (ligand)”: in assay [1], the scatter assay on DU-145 cells, mean object area, 30 pM HGF alone, IgG series; the smaller the number, the more scattering (mean object area) is 324 and the scatter assay on DU-145 cells, mean object area, media alone with 30 pM HGF (no antibody or Fab), Fab series; the smaller the number, the more scattering (mean object area) was 352.
